Measured values reported in paper PMC2173062 (The Journal of Cell Biology, 2002).

Key:
[1] = target: bovine Hsc70 R447H, recombinant mutant (bovine, UniProt P19120 1-650, R447H); assay: pull-down
[2] = target: bovine Hsc70, recombinant wild type (bovine, UniProt P19120 1-650); assay: pull-down
bovine Hsc70, recombinant wild type, sequence (P19120 whole entry): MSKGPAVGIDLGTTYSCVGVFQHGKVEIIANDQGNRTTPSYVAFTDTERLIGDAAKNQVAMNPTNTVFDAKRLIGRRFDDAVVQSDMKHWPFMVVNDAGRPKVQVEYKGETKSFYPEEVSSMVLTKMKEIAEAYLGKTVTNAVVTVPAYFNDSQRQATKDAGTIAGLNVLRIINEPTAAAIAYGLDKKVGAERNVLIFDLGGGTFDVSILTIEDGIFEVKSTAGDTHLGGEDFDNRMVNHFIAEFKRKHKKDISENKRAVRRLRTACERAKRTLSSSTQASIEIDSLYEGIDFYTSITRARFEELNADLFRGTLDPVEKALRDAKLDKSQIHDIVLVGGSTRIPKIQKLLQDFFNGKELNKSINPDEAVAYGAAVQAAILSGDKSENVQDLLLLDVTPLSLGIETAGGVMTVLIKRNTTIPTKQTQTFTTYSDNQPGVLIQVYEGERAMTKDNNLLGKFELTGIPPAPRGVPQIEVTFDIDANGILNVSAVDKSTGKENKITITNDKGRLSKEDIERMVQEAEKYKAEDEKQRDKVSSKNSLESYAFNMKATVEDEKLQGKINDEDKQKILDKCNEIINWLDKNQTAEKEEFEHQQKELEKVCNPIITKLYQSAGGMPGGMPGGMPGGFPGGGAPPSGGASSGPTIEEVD

bovine Hsc70 R447H, recombinant mutant, sequence (P19120 whole entry R447H): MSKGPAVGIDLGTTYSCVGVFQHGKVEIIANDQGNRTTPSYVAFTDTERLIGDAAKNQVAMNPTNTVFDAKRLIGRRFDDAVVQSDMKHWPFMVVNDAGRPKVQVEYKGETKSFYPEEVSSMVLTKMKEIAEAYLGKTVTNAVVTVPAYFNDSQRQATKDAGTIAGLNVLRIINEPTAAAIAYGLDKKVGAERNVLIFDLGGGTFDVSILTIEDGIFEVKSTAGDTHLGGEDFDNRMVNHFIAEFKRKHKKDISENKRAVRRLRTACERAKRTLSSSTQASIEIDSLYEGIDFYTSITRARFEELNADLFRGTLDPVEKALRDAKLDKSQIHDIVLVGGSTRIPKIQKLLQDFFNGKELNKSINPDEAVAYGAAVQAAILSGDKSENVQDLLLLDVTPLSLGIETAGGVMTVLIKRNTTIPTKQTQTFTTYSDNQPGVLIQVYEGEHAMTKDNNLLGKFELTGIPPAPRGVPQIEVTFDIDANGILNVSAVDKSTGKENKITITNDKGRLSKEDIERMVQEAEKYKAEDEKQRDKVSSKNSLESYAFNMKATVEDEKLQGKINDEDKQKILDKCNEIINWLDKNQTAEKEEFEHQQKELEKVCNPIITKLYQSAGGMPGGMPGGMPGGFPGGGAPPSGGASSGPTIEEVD

binding result [1]: binds
binding result [2]: binds
B1: GST-J^aux, J-domain of bovine auxilin (residues 813-910) fused to GST (domain or fragment, UniProt Q27974 813-910, looked up)
chain: DPEKLKILEWIEGKERNIRALLSTMHTVLWAGETKWKPVGMADLVTPEQVKKVYRKAVLVVHPDKATGQPYEQYAKMIFMELNDAWSEFENQGQKPLY
